Data: article PMC4514642, “^99mTc-3P-RGD2 molecular imaging targeting integrin αvβ3 in head and neck squamous cancer xenograft” (Journal of Radioanalytical and Nuclear Chemistry, 2015)

Columns and labels:
[1] = In vitro stability in serum by radio-HPLC; assay type: in vitro ADME; details: fetal calf serum (result text); newborn calf serum / 2 mL human serum in method; 37 MBq, 37 °C, incubation 6 h (analysed at 0 min, 3, 4, 6 h); radio-HPLC radiochemical purity
Description: The stability of ^99mTc-3P-RGD2 in newborn calf serum was determined after incubating the radiolabeled compound (37 MBq) in 2 mL […] at 37 °C. Every 20 μL mixture was injected directly into the radio-HPLC to analyze the radiochemistry purity, which was followed by radiolabeling efficiency analysis at 0 min, 3, 4, and 6 h.
Fig. 2 Radio-HPLC analysis of ^99mTc-3P-RGD2 stability. ^99mTc-3P-RGD2 incubated in new-born calf serum for 0 min (a), 3 h (b), 4 h (c), 6 h (d) after labeling

[2] = Biodistribution in HEP-2 tumor bearing mice; assay type: in vivo, BALB/c nude mice; details: female, BALB/c nude, mouse, iv, total radioactivity, HEP-2 model, mean ± SD
Description: (§1) Female BALB/c nude mice (4–5 weeks of age, 15–20 g of weight) were purchased from the Department of Animal Experiment, Chinese Academy of Medical Sciences. The mice were subcutaneously implanted with 3 × 10^6 the HEP-2 cells (6 mice) or 2 × 10^5 the CNE-1 cells (6 mice) in 0.1 mL of saline into the right upper shoulder flanks. All procedures were performed in a laminar flow cabinet using the aseptic technique. Fifteen to nineteen days after inoculation, the tumor size was 1–1.5 cm, the tumor-bearing mice were used for biodistribution and imaging studies. Capital Medical University Animal Care and Use Committee approved the animal experiments.
(§2) The biodistribution of ^99mTc-3P-RGD2 in HEP-2 tumor bearing mice and CNE-1 tumor bearing mice was evaluated in groups of 3 mice per time point at 60 min and 120 min after injection of approximately 0.55–0.74 MBq of ^99mTc-3P-RGD2 in 0.1 mL saline via tail vein. From all mice, tumors and tissue samples (blood, heart, liver, spleen, kidney, lung, intestine and muscle) were harvested and weighed. Subsequently, radioactivity uptake was determined in γ-counter. Activity concentrations in the tissues were calculated as percentage of the injected dose per gram of tissue (%ID/g). To correct for radioactive decay, injection standards were counted simultaneously.

HEP-2 tumor = assay: Biodistribution in HEP-2 tumor bearing mice; assay type: in vivo, BALB/c nude mice; details: stated for HEP-2 and CNE-1 tumor models together
Description: as §1, §2

[3] = Biodistribution in CNE-1 tumor bearing mice; assay type: in vivo; details: female, BALB/c nude, mouse, iv, total radioactivity, CNE-1 model, mean ± SD
Description: as §1, §2

N=C(N)NCCC[C@@H]1NC(=O)[C@H](CCCCNC(=O)CCOCCOCCOCCOCCNC(=O)CC[C@H](NC(=O)CCOCCOCCOCCOCCNC(=O)c2ccc(NN)nc2)C(=O)NCCOCCOCCOCCOCCC(=O)NCCCC[C@@H]2NC(=O)[C@@H](Cc3ccccc3)NC(=O)[C@H](CC(=O)O)NC(=O)CNC(=O)[C@H](CCCNC(=N)N)NC2=O)NC(=O)[C@@H](Cc2ccccc2)NC(=O)[C@H](CC(=O)O)NC(=O)CNC1=O [^99mTc-3P-RGD2, [^99mTc(HYNIC-3P-RGD2)(tricine)(TPPTS)], metal not drawn]
stability in serum (radio-HPLC) [1]: stable | tissue to tissue ratio at 2 h ([2]; HEP-2 tumor / blood, 120 min p.i., read-out: tumor/blood ratio): 6.37 ± 0.68 | tissue to tissue ratio at 2 h ([2]; HEP-2 tumor / muscle, 120 min p.i., read-out: tumor/muscle ratio): 4.44 ± 0.42 | tissue uptake at 1 h ([2]; HEP-2 tumor, 60 min p.i., tail vein 0.55–0.74 MBq, γ-counter, %ID/g, 3 mice per time point): 6.25 ± 0.22 %ID/g | tissue uptake at 2 h ([2]; HEP-2 tumor, 120 min p.i., tail vein 0.55–0.74 MBq, γ-counter, %ID/g, 3 mice per time point): 4.56 ± 0.67 %ID/g | uptake in blood and muscle (HEP-2 tumor; 60 min p.i.): low | route of excretion (HEP-2 tumor): excreted predominantly via the renal route | kidney uptake (HEP-2 tumor; selected organs): highest in the selected organs | tissue to tissue ratio at 2 h ([3]; CNE-1 tumor / blood, 120 min p.i., read-out: tumor/blood ratio): 2.49 ± 0.09 | tissue to tissue ratio at 2 h ([3]; CNE-1 tumor / muscle, 120 min p.i., read-out: tumor/muscle ratio): 1.86 ± 0.07 | tissue uptake at 1 h ([3]; CNE-1 tumor, 60 min p.i., tail vein 0.55–0.74 MBq, γ-counter, %ID/g, 3 mice per time point): 2.74 ± 0.51 %ID/g | tissue uptake at 2 h ([3]; CNE-1 tumor, 120 min p.i., tail vein 0.55–0.74 MBq, γ-counter, %ID/g, 3 mice per time point): 1.69 ± 0.18 %ID/g
